From paper PMC8591422

B1: PBX-MEIS Probe (dsDNA)
DNA 1: CTGCGTTGATTGACAGCCGC
DNA 2: GCGGCTGTCAATCAACGCAG
B2: PBX1 Probe (PBX1-CS-DNA-Biotin) (dsDNA)
DNA 1: CGAAATTGATTGATGCTTTAATTGAC
DNA 2: GTCAATTAAAGCATCAATCAATTTCG

Legend:
[1] = biological target: T1, PBX1 (recombinant, Origene) (UniProt P40424 1-430); assay: EMSA
T1 sequence: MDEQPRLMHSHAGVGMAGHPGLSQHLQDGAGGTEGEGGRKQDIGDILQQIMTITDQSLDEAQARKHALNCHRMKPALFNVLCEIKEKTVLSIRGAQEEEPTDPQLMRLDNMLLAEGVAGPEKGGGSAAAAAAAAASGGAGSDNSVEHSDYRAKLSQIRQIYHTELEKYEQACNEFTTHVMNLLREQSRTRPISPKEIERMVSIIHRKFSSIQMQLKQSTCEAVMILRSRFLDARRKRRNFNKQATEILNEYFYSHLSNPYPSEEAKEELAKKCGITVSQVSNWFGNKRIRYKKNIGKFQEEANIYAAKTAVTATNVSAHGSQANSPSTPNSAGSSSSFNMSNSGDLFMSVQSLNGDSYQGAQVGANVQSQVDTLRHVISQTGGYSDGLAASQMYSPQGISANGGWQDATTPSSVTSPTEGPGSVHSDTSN

[2] = biological target: T2, PBX1-DBD (UniProt P40424 233-295); assay: SPR
T2 sequence: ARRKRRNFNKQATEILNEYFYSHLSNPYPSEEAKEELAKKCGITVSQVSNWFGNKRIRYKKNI

Binder	binding result [1]	Kd [2]
B1	binds	–
B2	–	0.8 nM
